Data taken from the RNAGym collection of RNA variant scans (doi:10.1073/pnas.2313332121).

B1: TPR t1 (parent)
chain: GACCAAUCUGCCCUCAGAGCUCGAGAACAUCUUCGGAUGCAGAGGAGGCAGGCUUCGGUGGCGCGAUAGCGCCAACGUCCUCAACCUCCAAUGCAUCCCACCACAUGAUGAUGCCUGAAGAGCCUUGGUUUUUUG

Variants of: B1
Experiment: polymerase ribozyme fitness, log enrichment relative to wild type (log ratio); higher = more active; in vitro selection for triplet polymerase activity
In short: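 Mutant libraries of each subunit of a heterodimeric triplet polymerase ribozyme were built by PCR and transcribed. Each library went through one round of in vitro selection in triplicate: annealing with biotinylated primer, partner subunit and triplets, frozen incubation at −7 °C, gel excision of extended constructs, streptavidin-bead capture and RT-PCR. Input and output libraries were Illumina-sequenced; only genotypes with ≥10 input reads and ≥1 read per output were kept. Fitness is log2(genotype enrichment/wild-type enrichment), using inverse-variance-weighted replicate averages.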

Variant | polymerase ribozyme fitness (log ratio)
G44C U59G C80A | -4.66
G44U A111U | -4.9
A43C G77U C85G | -4.12
G44A G69A C89A C124G | -3.8
G42C G71U G77C A100U | -3.33
G42C G60C G120U | -2.03
G42A C70U | -2.09
G44C C89U | -1.15
G44A G63A A84U | -2.6
G42U A43C C73U G93A | -2.39
A43C U92G A111C C114A | -6.46
A41U G45C | -2.41
A43U G44U | -1.67
A43G G113C | -3
A43G G113U | -2.72
G44U A121G | 0.89
A43C G47U | -3.64
G44A G77C U78A G93A | -1.9
A43C G44U | -2.14
G44C G48A | -0.967
A43G C64G U87G G110A | -6.77

Variant | polymerase ribozyme fitness (log ratio)
G44C G63U | -1.98
G44A A100C G110A | -4.23
A43G G61U | -1.45
A43G G61A | -1.27
G44A C88A | -1.02
A43U C53G | -1.38
G42A C88A C98G G110C | -6.29
G44C C49U C114U | -3.24
G42C C124G | 0.37
G44C C80U C88A | -2.94
A43U G58U G113A | -2.63
A43U G71U | -1.89
G44C G61A A66G A75G | -2.01
A43U G110U | -3.52
G42U A43G C123A | -1.31
G42C G120A U132A | -0.616
A43U G77C U78A C79U G120U U131C | -1.51
A41U G51U C62U | -5.82
G42U C53G G77U U126C | -2.18
G42U C73U | -1.51
G42U C73A | -1.55

Variant | polymerase ribozyme fitness (log ratio)
G42A C56G C64U G122A | -3.76
G42A C114G | -2.75
A41U U92A | -0.903
A43C G48U C62A A66U C123A | -6.8
G44A C72A U78C A119G | 0.491
G44A G60U | -0.542
G42U G93U A118G | -2.35
G44C G60U U116C C124A | -0.335
G44A G52U U87A | -2.35
G42A C85A C94G G113A | -4.07
G44A A105G | -4.47
A43U A121C | 0.506
A43U A121U | 1.26
G42A G47A U112A | -1.49
A43G G77A A83C C88G A121U G128U | -5.57
A43C C49A C94A C115A | -4.43
A43C U87C C89A A91U U92G G93C U125G | -4.91
A43U A111G | -0.575
A43U G60C C76G U78A G113C U125A | -4.6
G44C U55A C70G U126G | -5.73
A41U U55A | -1.08

Variant | polymerase ribozyme fitness (log ratio)
G42U G61U C82U G127A U133A | -3.41
G44A C89G C115A C124A U129A | -1.46
A43U G45A C56U C62U U92A | -4.61
G42U G61U C123A | -0.3
G42C U54G | -1.44
A43U G93U | -2.7
A41U C80U C123A | -1.59
G42U A43G G45U U55G C72A | -0.969
A43C G48C G71A | -4.5
G44A C49U U78G C101A | -3.78
G42U C94U U126A U129G | -5.24
A41U C102U | -3.6
G42C G44U G117U A118U | -5.32
G42U C72A A74G U96C | -3.45
G42A C64G C114G G117C | -7.17
G42U G57U C82U | -1.58
G42A C49G C72A C94U U130A U132C | -3.26
A43C U78C C80A C89U | -4.14
A43U G48A C56U | -1.58
A43C G48C | -2.99
